Laboratory results as given in patent US20220112303A1 (ICHILOV TECH, published 2022).

Legend:
[1] = target: T1, CD24 on human cells (HT29, colo257, Panc-1, sh-sy5y, PBMCs) (human, UniProt P25063 27-59); assay: whole cell ELISA and flow cytometry on HT29 cells (HCT116 as low-CD24 control)
T1 construct: whole, on cells; also called CD24-positive cells
T1 chain (looked up): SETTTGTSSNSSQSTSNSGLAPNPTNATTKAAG

CD24 antigen = target: T2, CD24 antigen (UniProt P25063 27-59); assay: Biacore SPR
T2 chain: T1 chain (looked up)

B1: humanized matured NS17 anti-CD24 antibody (antibody, V domains shown)
VH: QVHLQESGPGLVKPSQTLSLTCAVSGYSISSGYTWHWIRQPPGKTVEWIGYIQYTGSTRYNPALRGRLTMSVDTSKNQFSLKLISVTAADTGVYFCARGTTASFDYWGQGTTVTVSS
VL: DIVMTQSPDSLNVSLGERATIRCRSSQSLLYSSDQKNYLTWYQQKPGQPPKLLISWASPRASGVPDRFSGSGSGTDFTLTISSLQAEDVGVYYCQQYFIYPLTFGVGTKLELK
notes: Tested as whole IgG with human CH1-CH3 and Ck, expressed from the pcDNA4-PCMV-TetO2-IgL-PCMV-TetO2-IgH vector; also called matured antibody
For B1, the binding result [1] was “binds” and the Kd (CD24 antigen) was 18 nM.
